Measured values: the supplement of paper PMC10065799, “High-throughput profiling of sequence recognition by tyrosine kinases and SH2 domains using bacterial peptide display” (eLife, 2023)

Tests used:
c-Abl (mouse) = test: phosphorylation enrichment, bacterial display (enrichment ratio); higher = better substrate or ligand; peptides without Tyr show the background
Fer (mouse) = test: as above
c-Src = test: as above
Hck = Hck (UniProt P08631); test: as above
Fyn = Fyn (UniProt P06241); test: as above
Fyn, sequence (P06241 whole entry, looked up): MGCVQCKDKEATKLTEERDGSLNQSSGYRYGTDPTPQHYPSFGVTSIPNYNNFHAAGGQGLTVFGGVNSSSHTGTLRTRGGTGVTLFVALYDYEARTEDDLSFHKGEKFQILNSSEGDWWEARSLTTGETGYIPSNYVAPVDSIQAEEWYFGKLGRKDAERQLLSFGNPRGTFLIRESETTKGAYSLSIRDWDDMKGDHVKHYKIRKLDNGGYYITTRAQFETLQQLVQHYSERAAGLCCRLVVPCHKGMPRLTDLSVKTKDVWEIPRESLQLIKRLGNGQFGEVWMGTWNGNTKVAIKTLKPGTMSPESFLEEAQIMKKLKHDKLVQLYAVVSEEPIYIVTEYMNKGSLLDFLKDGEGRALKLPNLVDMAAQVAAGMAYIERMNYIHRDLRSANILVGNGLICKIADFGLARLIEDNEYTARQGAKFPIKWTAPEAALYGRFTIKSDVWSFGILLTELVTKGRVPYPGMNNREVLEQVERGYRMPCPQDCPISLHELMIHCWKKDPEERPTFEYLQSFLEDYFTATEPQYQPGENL

FGFR1 = FGFR1 (UniProt P11362); test: as above
FGFR1, sequence (P11362 whole entry, looked up): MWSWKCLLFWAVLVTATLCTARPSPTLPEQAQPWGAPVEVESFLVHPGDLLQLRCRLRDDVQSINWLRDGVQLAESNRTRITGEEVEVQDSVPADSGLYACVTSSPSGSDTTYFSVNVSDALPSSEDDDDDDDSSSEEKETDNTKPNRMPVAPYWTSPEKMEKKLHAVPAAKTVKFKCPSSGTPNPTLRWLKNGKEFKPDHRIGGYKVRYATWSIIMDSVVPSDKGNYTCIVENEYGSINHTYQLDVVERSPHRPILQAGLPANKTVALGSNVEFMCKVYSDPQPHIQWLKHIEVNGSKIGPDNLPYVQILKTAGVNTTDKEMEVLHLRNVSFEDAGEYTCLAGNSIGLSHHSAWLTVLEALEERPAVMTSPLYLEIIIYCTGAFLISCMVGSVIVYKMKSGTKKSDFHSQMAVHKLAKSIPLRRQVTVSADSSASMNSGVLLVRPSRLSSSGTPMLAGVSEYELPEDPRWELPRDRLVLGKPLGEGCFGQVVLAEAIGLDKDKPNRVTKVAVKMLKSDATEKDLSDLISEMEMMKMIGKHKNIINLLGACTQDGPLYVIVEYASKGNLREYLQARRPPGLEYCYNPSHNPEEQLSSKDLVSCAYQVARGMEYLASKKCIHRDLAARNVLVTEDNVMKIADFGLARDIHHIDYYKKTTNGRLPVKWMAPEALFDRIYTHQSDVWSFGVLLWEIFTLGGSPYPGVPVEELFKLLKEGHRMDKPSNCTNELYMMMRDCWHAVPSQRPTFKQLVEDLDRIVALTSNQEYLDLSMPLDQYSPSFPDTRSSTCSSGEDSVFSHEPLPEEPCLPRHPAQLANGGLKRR

Fes = Fes (UniProt P07332); test: as above
Fes, sequence (P07332 whole entry, looked up): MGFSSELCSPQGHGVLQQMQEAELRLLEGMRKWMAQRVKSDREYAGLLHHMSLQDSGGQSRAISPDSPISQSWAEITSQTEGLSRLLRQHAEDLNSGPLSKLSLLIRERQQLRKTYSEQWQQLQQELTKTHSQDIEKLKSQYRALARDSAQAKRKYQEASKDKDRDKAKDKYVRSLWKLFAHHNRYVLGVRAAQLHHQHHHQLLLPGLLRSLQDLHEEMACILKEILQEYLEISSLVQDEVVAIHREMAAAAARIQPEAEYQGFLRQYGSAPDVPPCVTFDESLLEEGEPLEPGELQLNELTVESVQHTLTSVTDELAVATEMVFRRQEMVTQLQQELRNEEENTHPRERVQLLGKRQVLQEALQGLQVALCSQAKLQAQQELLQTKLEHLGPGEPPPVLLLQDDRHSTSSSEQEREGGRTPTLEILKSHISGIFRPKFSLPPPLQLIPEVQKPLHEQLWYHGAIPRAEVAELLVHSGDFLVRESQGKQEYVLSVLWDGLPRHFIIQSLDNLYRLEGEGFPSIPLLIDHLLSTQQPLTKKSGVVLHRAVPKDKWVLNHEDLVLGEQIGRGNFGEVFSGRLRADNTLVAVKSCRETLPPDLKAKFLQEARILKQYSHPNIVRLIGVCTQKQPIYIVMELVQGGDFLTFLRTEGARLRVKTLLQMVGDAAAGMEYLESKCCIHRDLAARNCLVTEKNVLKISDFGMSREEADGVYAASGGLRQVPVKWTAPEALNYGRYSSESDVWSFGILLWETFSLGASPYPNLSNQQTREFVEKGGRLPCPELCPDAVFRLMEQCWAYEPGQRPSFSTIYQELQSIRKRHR

AncSZ = test: as above
FGFR3 = FGFR3 (UniProt P22607); test: as above
FGFR3, sequence (P22607 whole entry, looked up): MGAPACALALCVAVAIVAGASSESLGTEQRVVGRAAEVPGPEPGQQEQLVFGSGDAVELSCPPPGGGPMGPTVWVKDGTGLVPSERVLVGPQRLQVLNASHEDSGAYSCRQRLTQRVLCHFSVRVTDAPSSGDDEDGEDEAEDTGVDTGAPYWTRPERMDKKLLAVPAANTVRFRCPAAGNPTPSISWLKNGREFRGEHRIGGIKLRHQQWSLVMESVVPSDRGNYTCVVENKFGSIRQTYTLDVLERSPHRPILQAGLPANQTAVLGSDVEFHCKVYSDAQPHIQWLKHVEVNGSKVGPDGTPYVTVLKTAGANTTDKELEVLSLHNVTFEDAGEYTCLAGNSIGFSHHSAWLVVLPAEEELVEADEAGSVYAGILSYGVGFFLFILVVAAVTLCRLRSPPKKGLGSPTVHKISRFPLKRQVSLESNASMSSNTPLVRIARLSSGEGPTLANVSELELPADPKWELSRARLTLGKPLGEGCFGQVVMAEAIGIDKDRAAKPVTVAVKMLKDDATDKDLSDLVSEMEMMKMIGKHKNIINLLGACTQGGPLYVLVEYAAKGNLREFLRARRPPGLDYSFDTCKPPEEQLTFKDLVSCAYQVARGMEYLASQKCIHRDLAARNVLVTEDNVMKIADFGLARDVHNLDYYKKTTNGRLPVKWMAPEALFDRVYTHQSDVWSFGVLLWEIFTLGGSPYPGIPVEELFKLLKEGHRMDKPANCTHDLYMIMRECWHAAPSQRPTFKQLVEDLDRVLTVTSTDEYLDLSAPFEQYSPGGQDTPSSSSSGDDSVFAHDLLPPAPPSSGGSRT

MERTK = MERTK (UniProt Q12866); test: as above
MERTK, sequence (Q12866 whole entry, looked up): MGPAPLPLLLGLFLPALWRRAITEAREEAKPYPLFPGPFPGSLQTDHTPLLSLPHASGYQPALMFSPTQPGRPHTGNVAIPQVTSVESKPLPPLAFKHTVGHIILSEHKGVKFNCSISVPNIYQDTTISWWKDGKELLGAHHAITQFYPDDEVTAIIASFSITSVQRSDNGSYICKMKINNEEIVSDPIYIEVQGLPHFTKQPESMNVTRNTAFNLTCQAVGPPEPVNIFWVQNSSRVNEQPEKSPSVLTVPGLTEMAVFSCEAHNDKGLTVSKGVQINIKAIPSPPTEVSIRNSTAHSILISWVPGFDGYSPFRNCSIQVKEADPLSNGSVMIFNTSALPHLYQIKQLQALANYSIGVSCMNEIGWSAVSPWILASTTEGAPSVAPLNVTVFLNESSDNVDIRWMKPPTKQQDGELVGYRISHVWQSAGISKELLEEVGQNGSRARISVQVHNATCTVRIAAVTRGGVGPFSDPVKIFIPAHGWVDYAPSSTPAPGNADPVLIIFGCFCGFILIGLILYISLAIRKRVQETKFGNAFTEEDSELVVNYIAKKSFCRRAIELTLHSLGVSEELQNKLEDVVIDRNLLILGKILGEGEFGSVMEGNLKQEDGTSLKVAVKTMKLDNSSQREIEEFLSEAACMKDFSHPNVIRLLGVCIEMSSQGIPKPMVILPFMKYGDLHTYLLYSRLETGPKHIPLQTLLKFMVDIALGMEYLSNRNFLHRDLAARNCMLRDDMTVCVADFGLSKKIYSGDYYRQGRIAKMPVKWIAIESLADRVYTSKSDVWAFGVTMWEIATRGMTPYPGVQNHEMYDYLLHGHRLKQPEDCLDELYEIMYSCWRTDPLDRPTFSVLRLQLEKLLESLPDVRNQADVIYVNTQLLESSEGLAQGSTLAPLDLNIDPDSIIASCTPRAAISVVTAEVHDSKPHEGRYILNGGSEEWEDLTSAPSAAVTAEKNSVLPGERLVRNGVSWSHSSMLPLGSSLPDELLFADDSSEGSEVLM

EPHB1 = EPHB1 (UniProt P54762); test: as above
Jak2 = Jak2 (UniProt O60674); test: as above
EPHB2 = EPHB2 (UniProt P29323); test: as above
EPHB2, sequence (P29323 whole entry, looked up): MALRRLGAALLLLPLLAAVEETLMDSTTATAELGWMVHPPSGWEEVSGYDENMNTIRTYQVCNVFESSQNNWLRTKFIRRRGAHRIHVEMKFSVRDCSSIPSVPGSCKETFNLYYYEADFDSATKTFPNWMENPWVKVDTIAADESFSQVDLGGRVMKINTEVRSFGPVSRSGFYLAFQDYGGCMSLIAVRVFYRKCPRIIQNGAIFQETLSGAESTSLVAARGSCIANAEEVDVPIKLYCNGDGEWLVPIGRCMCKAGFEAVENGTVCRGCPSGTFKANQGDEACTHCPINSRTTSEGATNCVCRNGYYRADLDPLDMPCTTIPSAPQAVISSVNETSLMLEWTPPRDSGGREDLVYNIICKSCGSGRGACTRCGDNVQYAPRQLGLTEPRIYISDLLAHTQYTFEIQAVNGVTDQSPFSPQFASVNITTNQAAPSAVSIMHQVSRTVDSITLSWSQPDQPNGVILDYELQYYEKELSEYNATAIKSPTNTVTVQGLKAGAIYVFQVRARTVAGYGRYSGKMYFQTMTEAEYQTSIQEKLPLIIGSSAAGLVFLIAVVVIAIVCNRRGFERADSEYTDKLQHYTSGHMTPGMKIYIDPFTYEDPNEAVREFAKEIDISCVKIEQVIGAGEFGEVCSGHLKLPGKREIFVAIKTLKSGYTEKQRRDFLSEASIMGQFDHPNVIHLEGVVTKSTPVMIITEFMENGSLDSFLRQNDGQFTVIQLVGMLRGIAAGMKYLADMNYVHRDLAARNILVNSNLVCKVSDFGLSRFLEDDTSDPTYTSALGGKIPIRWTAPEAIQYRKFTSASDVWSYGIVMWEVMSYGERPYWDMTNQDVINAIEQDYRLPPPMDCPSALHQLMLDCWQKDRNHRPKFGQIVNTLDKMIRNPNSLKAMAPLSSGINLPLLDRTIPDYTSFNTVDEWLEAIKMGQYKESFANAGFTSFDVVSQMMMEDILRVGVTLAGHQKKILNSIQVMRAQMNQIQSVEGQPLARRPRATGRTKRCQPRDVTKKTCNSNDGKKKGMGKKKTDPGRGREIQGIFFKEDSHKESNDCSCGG

c-Src SH2 = test: SH2 binding enrichment of the phosphorylated peptide, bacterial display (enrichment ratio); higher = better substrate or ligand; peptides without Tyr show the background
SHP2-C SH2 = test: as above
Grb2 SH2 = Grb2 SH2 (UniProt P62993); test: as above
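For SH2 binding enrichment of the phosphorylated peptide, bacterial display in this document: peptide library displayed on the E. coli surface as eCPX fusions, selected cells deep-sequenced, score is each peptide's frequency after selection divided by its frequency in the input.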
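For phosphorylation enrichment, bacterial display in this document: 11-residue human phosphosite peptides and single-mutation variants displayed on the E. coli surface, counted by deep sequencing, each peptide's frequency after selection divided by its frequency in the unselected input library; frequency after pTyr selection over input frequency; kinase dosed for 20-30% of maximal phosphorylation in three min.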

Sequence	SH2 binding enrichment (c-Src SH2)	SH2 binding enrichment (SHP2-C SH2)	SH2 binding enrichment (Grb2 SH2)	phosphorylation enrichment (c-Abl (mouse))	phosphorylation enrichment (Fer (mouse))	phosphorylation enrichment (c-Src)	phosphorylation enrichment (Hck)	phosphorylation enrichment (Fyn)	phosphorylation enrichment (FGFR1)	phosphorylation enrichment (Fes)	phosphorylation enrichment (AncSZ)	phosphorylation enrichment (FGFR3)	phosphorylation enrichment (MERTK)	phosphorylation enrichment (EPHB1)	phosphorylation enrichment (Jak2)	phosphorylation enrichment (EPHB2)
EKLQKYFRKNP [EHHADH_Y682_Q685K_YF]	0.549	0.802	0.914	0.763	0.514	0.613	0.646	0.527	0.473	0.895	0.613	0.553	0.567	0.693	0.991	0.615
ELETLYKKAVK [CC2D2A_Y381]	0.458	0.589	0.809	0.517	0.37	0.323	0.554	0.366	0.485	0.896	0.702	0.731	0.416	0.526	0.684	0.47
EMTRNYIIFIE [BCO2_Y294_G289E]	0.625	0.903	1.19	0.572	0.487	0.464	0.534	0.586	0.575	1.08	1.1	0.683	0.513	0.51	1.06	0.569
ENAGFYFRVSA	0.359	0.738	0.646	0.831	0.724	0.324	0.62	0.45	0.841	1.58	1.45	1.1	0.44	0.794	1.22	0.704
ENAGYYFRISA	0.6	0.776	0.661	0.764	0.523	0.356	0.534	0.488	0.527	1.48	1.51	0.852	0.369	0.797	1.36	0.781
ENRLDYGSAWA [AR_Y395_P392R]	0.499	0.735	0.955	0.501	0.352	0.435	0.311	0.498	0.353	1.25	0.773	0.503	0.364	0.359	0.824	0.453
ERLWVYGMSSS [F8_Y1728_D1727V]	0.639	0.688	0.872	0.691	0.539	0.556	0.574	0.565	0.529	1.61	1.17	0.729	0.395	0.669	1.18	0.612
ERPGVYTNVVE [F11_Y608]	6.19	0.979	4.93	0.513	0.413	0.442	0.463	0.481	0.438	0.62	0.66	0.538	0.383	0.417	0.519	0.423
ERQIRYLNHQL [CEP152_Y268]	0.512	0.683	0.842	0.523	0.347	0.399	0.4	0.396	0.412	0.527	0.557	0.39	0.382	0.373	0.413	0.354
ESMLRYDVFGG [STOX1_Y607_E608D_YF]	1.56	0.627	1.1	0.582	0.536	1.1	0.619	0.636	0.508	0.846	0.933	0.685	2.37	0.445	0.91	0.631
FAAAGYGSLEA [EPHA10_Y959]	0.515	0.701	0.926	0.747	0.487	1.14	0.436	0.443	0.507	0.844	0.86	0.535	0.469	0.403	0.675	0.485
FAKTQYPDVFA [CRX_Y63_YF]	0.486	0.544	0.803	0.478	0.388	0.351	0.483	0.364	0.454	0.74	0.876	0.525	0.38	0.469	0.724	0.45
FAKTQYPDVYA [CRX_Y63]	0.418	1	0.963	0.652	0.4	0.486	0.653	0.469	0.533	0.692	0.628	0.478	0.346	0.474	0.52	0.526
FEAMEYLESKQ [BTK_Y511_C506Y_YF]	0.484	0.635	0.641	0.966	0.543	0.427	0.567	0.499	0.527	1.36	1.24	0.993	0.474	0.534	1.17	0.682
FETSHYPASPD [CTNND2_Y1217_YF]	0.383	0.992	1.03	0.463	0.486	0.31	0.435	0.361	0.475	0.77	0.52	0.508	0.323	0.483	0.553	0.408
FGLQAYTKVKT [ALDH2_Y502_E504K_YF]	1.38	1.65	0.744	0.799	0.476	0.442	0.513	0.546	0.472	1.23	1.12	0.877	0.447	0.763	1.33	0.644
FIAVGYVDDTQ [HLA-A_Y51]	0.625	0.967	1.05	0.668	0.429	0.49	0.509	0.406	0.505	0.949	0.822	0.553	0.415	0.453	0.782	0.499
FITVGYVDDTQ [HLA-B_Y51_S48T]	0.736	1.1	0.779	0.898	0.528	0.432	0.517	0.529	0.658	1.21	0.999	0.741	0.482	0.681	0.877	0.611
FKDGQYWIRGR [ACSF3_Y466]	0.46	0.359	0.825	0.491	0.387	0.501	0.614	0.448	0.361	0.862	0.78	0.482	0.379	0.317	0.671	0.369

Now from value to sequence, other results behind:

SH2 binding enrichment (c-Src SH2)	SH2 binding enrichment (SHP2-C SH2)	SH2 binding enrichment (Grb2 SH2)	Sequence	phosphorylation enrichment (c-Abl (mouse))	phosphorylation enrichment (Fer (mouse))	phosphorylation enrichment (c-Src)	phosphorylation enrichment (Hck)	phosphorylation enrichment (Fyn)	phosphorylation enrichment (FGFR1)	phosphorylation enrichment (Fes)	phosphorylation enrichment (AncSZ)	phosphorylation enrichment (FGFR3)	phosphorylation enrichment (MERTK)	phosphorylation enrichment (EPHB1)	phosphorylation enrichment (Jak2)	phosphorylation enrichment (EPHB2)
0.411	0.501	0.69	ELTSVYGSRAR [SENP1_Y349_D350G]	0.567	0.424	1.96	1.86	1.97	0.41	0.633	0.523	0.583	0.449	0.378	0.538	0.42
0.506	0.511	0.774	EPFKVYRIVPE [IRF8_Y110_YF]	0.43	0.424	0.588	0.4	0.462	0.468	0.698	0.572	0.485	0.453	0.428	0.526	0.454
0.466	0.911	0.819	EPVSDYINANI [PTPN11_Y304]	0.603	0.412	0.38	0.541	0.447	0.454	0.847	0.997	0.673	0.325	0.433	0.799	0.495
0.502	0.664	0.783	EQLRAYLEGEC [HLA-C_Y183_T187E]	1.15	0.537	0.465	0.533	0.548	0.514	1.25	1.3	0.949	0.51	0.775	1.14	0.623
0.449	0.66	0.704	EQLRAYLEGLC [HLA-C_Y183_T187L]	1.13	0.607	0.618	0.73	0.482	0.512	1.58	1.34	0.843	0.615	0.653	1.45	0.673
0.572	0.747	0.735	ESDFTYSSSFE [SRPK2_Y427_YF]	0.614	0.536	1.08	0.752	0.821	0.53	1.09	1.03	0.723	0.438	0.531	1.02	0.537
1	0.714	0.772	ETKKQYDSFTY [TMED3_Y85]	0.639	0.542	0.604	0.54	0.531	0.5	0.828	0.735	0.581	0.524	0.397	0.656	0.493
0.528	1.07	0.753	EVDGLYREAPI [MYL12B_Y143_E141G]	0.662	0.504	0.482	0.536	0.488	0.629	0.976	0.879	0.718	0.443	0.503	0.83	0.527
0.549	0.681	0.852	FADIAYNYRHA [PAH_Y166_G171A]	0.474	0.424	0.503	0.415	0.425	0.322	0.779	0.578	0.542	0.466	0.593	0.648	0.437
0.435	0.566	0.805	FDDIAHIRKTL [PIK3CA_Y1021_Y1021H]	0.611	0.433	0.389	0.553	0.538	0.529	0.844	0.688	0.515	0.416	0.51	0.854	0.529
0.264	0.613	0.51	FFRKFYNKSED [RYR1_Y4864]	0.421	0.353	0.388	0.41	0.458	0.484	0.718	0.794	0.562	0.424	0.386	0.622	0.57
1.79	0.629	0.563	FFRNVYHLASV [RBL1_Y796_K794N_YF]	0.51	0.403	0.862	0.596	1.25	0.486	0.763	0.803	0.532	0.404	0.509	0.575	0.515
0.942	0.849	1.01	FGLDRYQCDCT [PTGS1_Y54]	0.796	0.492	0.422	0.499	0.524	0.587	1.23	1.1	0.861	0.454	0.625	0.874	0.613
0.481	0.725	0.768	FHKALYTVRTY [PDE6C_Y266_S270T]	0.964	0.542	0.596	0.725	0.599	0.655	1.26	0.964	0.774	0.519	0.774	1.16	0.645
